{"source": "paper PMC7552008", "binders": {"B1": {"name": "AWFC01 (dsRNA)", "RNA 1": "GGUAACUGUUACAGUUACC", "RNA 2": "GGUAACUGUUACAGUUACC"}, "B2": {"name": "ZKO (dsRNA)", "RNA 1": "AGACAGCAUUAUGCUGUCUUU", "RNA 2": "AGACAGCAUUAUGCUGUCUUU"}, "B3": {"name": "ZKO* (dsRNA)", "RNA 1": "AGACAGCAUUAUGCUGUCU", "RNA 2": "AGACAGCAUUAUGCUGUCU"}}, "key": {"NS1 RBD H7N1 [1]": {"target": "T1, NS1 RBD H7N1 (Influenza A virus (avian H7N1; allele B), UniProt Q1PST0 1-73)", "test": "competition EMSA; EC50app vs labelled AWFC01", "details": "protein: recombinant, tags: N-His thrombin-cleaved (vector residues remain), chain copies: 2"}, "NS1 RBD H7N9": {"target": "NS1 RBD H7N9 (Influenza A virus (H7N9), UniProt S4VCY8 1-73)", "test": "EMSA", "details": "protein: recombinant; tags: N-His thrombin-cleaved; chain copies: 2; label: 5'-32P"}, "NS1 RBD H7N1 [2]": {"target": "T1, NS1 RBD H7N1", "test": "EMSA", "details": "protein: recombinant; tags: N-His thrombin-cleaved (vector residues remain); chain copies: 2; label: 5'-32P"}, "NS1 RBD H17N10": {"target": "NS1 RBD H17N10 (Influenza A virus (H17N10), UniProt H6QM79 1-73)", "test": "EMSA", "details": "protein: recombinant; tags: N-His thrombin-cleaved; chain copies: 2; label: 5'-32P"}, "NS1 RBD H7N1 [3]": {"target": "T1, NS1 RBD H7N1", "test": "X-ray crystallography; 2.30 A; 2 M ammonium sulfate", "details": "protein: recombinant; tags: N-His thrombin-cleaved (vector residues remain); chain copies: 2"}}}
{"binder": "B1", "values": [{"measurement": "IC50", "setting": "NS1 RBD H7N1 [1]; label: 5'-32P", "result": "1.7 ± 0.1", "unit": "nM"}, {"measurement": "Kd", "setting": "NS1 RBD H7N9", "result": "3.1 ± 0.1", "unit": "nM"}, {"measurement": "Kd", "setting": "NS1 RBD H7N1 [2]", "result": "0.83 ± 0.03", "unit": "nM"}, {"measurement": "Kd", "setting": "NS1 RBD H17N10", "result": "1.5 ± 0.1", "unit": "nM"}]}
{"binder": "B2", "values": [{"measurement": "IC50", "setting": "NS1 RBD H7N1 [1]", "result": "96 ± 3", "unit": "nM"}]}
{"binder": "UGAUUGAAG (ssRNA)", "note": "[DM03-mot B]", "values": [{"measurement": "binding result", "setting": "NS1 RBD H7N1 [2]", "result": "no binding"}]}
{"binder": "B3", "values": [{"measurement": "binding result", "setting": "NS1 RBD H7N1 [3]", "result": "binds"}]}
{"binder": "AGCAAAAG (ssRNA)", "note": "[DM01-mot A]", "values": [{"measurement": "binding result", "setting": "NS1 RBD H7N1 [2]", "result": "no binding"}]}
